Results published in the DeepSol protein solubility set.

test: soluble on expression in E. coli; label from the status in PepcDB or PDB records

| Sequence | soluble on expression in E. coli |
| --- | --- |
| MTPSRPSPDFPDGGFVQVRGARQHNLKDISVKVPRDALVVFTGVSGSGKSSLAFGTLYAEAQRRYLESVSPYARRLFNQAGVPDVDAIDGLPPAVALQQARGTPTARSSVGSVTTLSNLLRMLYSRAGDYPPGQGIVYAEGFSPNTPEGACPECHGLGRVYTVTEDSMVPDPSLTIRERAVAAWPQAWGGQNQRDILVTLGIDVDVPWRELPEETRHWILFTDEQPVVPVYPGLTPAETQRALKKKMEPSYMGTFSSARRHVLHTFANTESASMKKRVQGYMISEECPLCHGKRLRQEALNVTFAGLDITELSRLPLARVSELLRPYAEEREPGHAERVKNRPEQAIALQRMAADLVKRLDVLLHLGLGYLGLDRSTPTLSPGELQRLRLATQLYSNLFGVVYVLDEPSAGLHPADTEALLSALENLKRGGNSLFVVEHDLDVIRRADWLVDVGPEAGEKGGEILYSGPPEGLKHVPESQTGQYLFADRHTEPHTPREPAGWLELNGVTRNNLDNLDVRFPLGVMTSVTGVSGSGKSTLVSQALVDALAAHFGQPVNPDPEDDEDPADHTAGSARLGGDLAQITRLVRVDQKPIGRTPRSNMATYTGLFDQVRKLFAATPLAKKRGYNAGRFSFNVKGGRCEHCQGEGWVMVELLFLPSVYAPCPVCHGTRYNAETLEVEYRGKNIADVLALTVDEAHDFFADESAIFRALDTLREVGLGYLRLGQPATELSGGEAQRIKLATELRRSGRGGTVYVLDEPTTGLHPADVERLQRQLVKLVDAGNTVIAVEHKMQVVAASDWVLDIGPGAGEDGGRLVAQGTPAEVAQAAGSVTAPYLRAALR | soluble |
| MTQDTQLTFEARDEFNRKSIAEKVITLLRSDITVSPLVIDGSWGLGKTEFCQKLLSLMSTEETHHLIYIDAFKADHADEPLLTVLAKVLEVLPSQEEQQGLIQKAIPALRYGLKTGGKALVAHILRQDTDSIINGFDEEVKQVADKAIDASVESLLKDHVEAESSLQALQQALKSIAEQKPIVLFIDELDRCRPNFSVLMLETIKHTFDVEGVQFVLITNTNQLKASINHCYGPTIDAQRYLDKFIRFSFTLPHTTNENRHDVTMASVTHYKNLVAKSERLQGLSLDRDSDFWLVAQVINTNNISLREVETLVRHIEIYQALFDDQPLSNHTQWAYRLMALLGVLLISFKPNLAKSALINNLDAKDLGNFLGVHSLPKLENNQHPTHCDTLVFMLASECKYNSDFYVPDNPQDKERWEGEANEYFRGRYNLTRNGRMSLVTGAIKGLGLSVNLEHHHHHH | not soluble |
| MTQFAFVFPGQGSQSVGMLAEMAANYPIVEETFAEASAALGYDLWALTQQGPAEELNKTWQTQPALLTASVALWRVWQQQGGKMPALMAGHSLGEYSALVCAGVINFADAVRLVEMRGKFMQEAVPEGTGGMSAIIGLDDASIAKACEESAEGQVVSPVNFNSPGQVVIAGHKEAVERAGAACKAAGAKRALPLPVSVPSHCALMKPAADKLAVELAKITFSAPTVPVVNNVDVKCETDAAAIRDALVRQLYNPVQWTKSVEFIAAQGVEHLYEVGPGKVLTGLTKRIVDTLTASALNEPAALSAALTQ | not soluble |
| MTQHNDNDDDAALFRAAIGPVRPLRPSEMAITIKPPSRPRRRIIQHHQDEAKSKFAQLLRESAPLEAGDTISYRSKALPSRLFQRLKRGQFSVQDELDLHGATVVQAETLLRQFLLEAHMYEYGCVRIIHGKGLQSNGGTPVLKNLVNQLLRLRKDVLAFHSSPPAQGGTGAVLVLLTHH | soluble |
| MTQNTKLRPITPEFDPWEAYMDVDQYGDMQLTNVEFTTTTLCNMRCEHCAVGYTLQPKDPNALPIDLLLKRLEEIPRLRSISITGGEPMLSLKSVKEYVVPLLKYAHERGVRTQINSNLTLDIERYEWIIPYLDVLHISHNWGTVEDFAEIGFA | not soluble |
| MTQQEYQNRRQALLAKMAPGSAAIIFAAPEATRSADSEYPYRQNSDFSYLTGFNEPEAVLILVKSDETHNHSVLFNRIRDLTAEIWFGRRLGQEAAPTKLAVDRALPFDEINEQLYLLLNRLDVIYHAQGQYAYADNIVFAALEKLRHGFRKNLRAPATLTDWRPWLHEMRLFKSAEEIAVLRRAGEISALAHTRAMEKCRPGMFEYQLEGEILHEFTRHGARYPAYNTIVGGGENGCILHYTENECELRDGDLVLIDAGCEYRGYAGDITRTFPVNGKFTPAQRAVYDIVLAAINKSLTLFRPGTSIREVTEEVVRIMVVGLVELGILKGDIEQLIAEQAHRPFFMHGLSHWLGMDVHDVGDYGSSDRGRILEPGMVLTVEPGLYIAPDADVPPQYRGIGIRIEDDIVITATGNENLTASVVKDPDDIEALMALNH | not soluble |
| MTRACNLYVFKNKYVSFNLLDSPNSNPKLLKISLPFNFMDEFEGLLKAVGSAPWYKLIGMVPKLQGDRVVVEMEIDRSKHLQALGTTHGGAIASVLDSAIGLNVNREVVKMGKTAVTAQLNIHYIRPVTEGKIVGVGMPMHIGSKVTVGYGEVRNEEGELVAAGTATFYIIDRRFRD | soluble |
| MTRFLEKRHKKKKATNKERILSYKPIHAIEQENSFRSSRCSNQTVEVSAVEDSRSALVGFFESNEPSESVTLKGKRERQVRFADKTNTVGLLKESLEEKLLASKTLISQLKEENCRLKERLNEVKDQLELKEKIALVQQENNDLEAEVLEWKAKFYESESEKERILASRSRPKDGYEIVQESLAQQPGTTSFYDYKFRQLVHKLTRMNAIHSKHNDKEYHKCDIVNESKDRSITFELFIDEEQEEIEYVPVQLNGVSQKLPSYLQDNISFDVQNAPIFFTKIMHSLFSK | soluble |
| MTRHLAGSFASPPGAEAEGGPVRVTALRAQAFHIPTDLPEADGTFAWNATTLVLVEVEAGGQTGIGYTYSDASIVRLIHHTLAACVIDADAWQVGALWLRMQRQVRNPGRAGLAATAISAVDCALWDLKAKLLGVPLVTLLGAQRANVPIYGSGGFTTYTDEQLREQLVRWVAQDGCRWVKMKIGTHPQEDPQRVAAARAAIGDAGLFVDANGAFSVKEALHYARAFAEQGVEWFEEPVSSDDLRGLALLRERAPARMEIAAGEYAYTLDDFRLLLEAHAVDVLQADVSRCGGVTGFLQAAALCEAFHVPLSAHCAPALHLHVASAVRNLRHQEWFHDHVRIEAMLFDGAPRPSNGAIAPDMARPGCGLAFRHGDAQRYLIH | soluble |
| MTRKIDYLNYEEIQSLKNSLLHNIKHTYISRYMILTALYTGMRPGEIAVLTWSDIDFKNQTININKSYNHDKGRVDNYDSSEIDKSTKNTNSVRIIKVDKKFLDILSQLKQNDHEKIFIGKDGTIPTSNAVNKVWRKQLEKLNIDKPSFHFHSVRHTHVALLPFKGVPLYAISKRLGHANMSTTAKKYAYMLDELKQQVRLEHHHHHH | not soluble |
| MTRLAVEAAEQARLAAEVEAQRIAAETAEHARVVAEAEAKRVADEQALFAAEAEAHRITAEAAEQARMEAEAQAQRDADEHARVTAEAQALEAGKTLRLPEAGTPQLGAVAGVISVTAGSGLFLDATIQAAIEILAALVGTAVSSTTAVGIGTLLYSPSLGNGELPGRMLDLPARVLMPDLPDALNDVAATGGTVDMPYRIYGDQSKYSVVATQPEGGFSPKVPVRALILDPVANAYTFTTSDTPPITLTFPIAAPENSSTTTVAQPIETPAYTGITLEPIEVKAEPLPATSPLDIRDAIYVYPVNSGLPPVYVVFSSPYEGATTKGEHSGRMYDPDNAGGPTQNLDWTTASVTQNGIDLVKLHTGRFEPSDANAVMIDRLEKILRSELSMTDTDKRFYTHELRELERYRALGVADGVEGEVWNNAHTATLEDYKLKDSSESFYTPEAITAENKQVYGELEHHHHHH | not soluble |
| MTRPVIVPFFISHQGCPHRCVFCDQERIAGRAGRLPSAAEIHSAVKTFGRGRPVEAAFYGGTFTSLPRNEQERLLAALQPLRHDGSVRSVRLSTRPDALDAETAGFLKSMGVASVELGVQSMDDQVLDVSGRGHSAADTVRAFDVLRSEGIAVGAQLMPGLPGDSRERSLDSLTRILDLKPVSLRIYPTLVVAGTRLAEFWAEGSYTPLTLADAVPLCADMLLACKRAGVPVIRLGLQPTDILERSVLAGPWHPALRQLVEGELWYRLLERLTTGLAAGTVVSVACAPARISDVVGQRRVNLSRLLERRGIVVTGVAGCPTAAPDTLTLTHAGGTVAGSLTD | not soluble |
| MTRRGVALVARRLPSSPGRVYAVKIDEGEDVHSVLSSLAEAEDLGFAMVTGIGGMAEATVAFYSPPEATYYTVDVKPPEGRVIEVAAMTGNIVKTSQGYSVHIHVALGVSPGKSISGHLVKGVVKPFMEVFVVELVSGQGTPGTSVFDHREGFKASYKRLEAAALEHHHHHH | not soluble |
| MTRSENFILDFTHIYIDENIEQTENIVRIDCSDILGTDLYCTKEGEAEIQKRIENFSINGVHFIDSGNYHYITKIMTDKINKKFSLVLYDHHTDMQKPMVEGMTSCGDWAAQVIEQNENLEQLILVGASEADIQQINVKNQSKLITFSAEELRNNSGREKLDLIETDVPFYISIDKDILDKHYIETNWSQGHMSLGMLEHLLKFFLKDKKIIGVDICGECQIGLPFPEYIEAEEKNAETNIELYEYIGRYMGK | not soluble |
| MTSDGATSTSAAAAAAAAAAARRKPSWRERENNRRRERRRRAVAAKIYTGLRAQGDYNLPKHCDNNEVLKALCVEAGWVVEEDGTTYRKPLPGEIAGTSSRVTPYSSQNQSPLSSAFQSPIPSYQVSPSSSSFPSPSRGEPNNNMSSTFFPFLRNGGIPSSLPSLRISNSCPVTPPVSSPTSKNPKPLPNWESIAKQSMAIAKQSMASFNYPFYAVSAPASPTHRHQFHTPATIPECDESDSSTVDSGHWISFQKFAQQQPFSASMVPTSPTFNLVKPAPQQMSPNTAAFQEIGQSSEFKFENSQVKPWEGERIHDVGMEDLELTLGNGKARG | soluble |
| MTSELKNNEEDYNSSSDEDYDPTKDTDFDPKDEIDDQEECEDGIDEEVEHLKNEKQSDDHTSEKANSTEGSVDVDAIFAELTGLAPKPVVNDTSSKNIPKTEERVYPKSAASASNESTNQKVYPKKTETAGTSSESSIVPGKKRVGLLDAAKSLSKRSKISVLEKSDRDWKDFTTQNNLKEDLESHNRGKGGYLNKMDFLNRADNRQFEKERAFRATARKDTGQ | not soluble |
| MTSFDAIVIGGGHNGLVAAATLAKAGRKVLVLEAESEVGGAARTEEFAPGFRVSSIAHLLNRLHPDVVKTLELETHGLQFARADFLPSAALSKDGPALMLHGAYGEVLTGASPSEQSAWKDLRAQLLRYAGILKPFLTRRPPDLAGMSLMETASLGQTALALKKLGKEDMRDFLRVLLMNVADLLDEQLRDDRLKGLLAFDATLGSHLGPRSPTSLLGLYYRLAGEAGGAAGAQVLPQGGMGAVVAAIRAAAEKAGVTIRTSVAAAKIIVEKGHAVGVTLGTGEELRARTVVSAINPATTFLDLVGPREIDTGFVRKVKNIRMKGDAAKLHLALDRSPQFTGADAAAHKGRLVIAPSPDHVERAFNPCKYGEFSPEPVLEITLPSLADPSLAPDGACVLSAVVQYAPYALKEGWAAGKPKFIKAVMAQLEAYAPGIGKSVVHAELLTPADIETRYRMPGGHWHHGELQADQMLISRPVSGWSGYDTPVEGLFLAGAGSHPGGGVSGAPGLNAARRIIAMKGLEHHHHHH | soluble |
| MTSIEPTHTGKKVIVGMSGGVDSSVSAYLLMQQGYQVEGLFMKNWEEDDNDEYCAAAEDLKDAQAVCDKLGIKLHTVNFAAEYWDNVFEYFLAEYKAGRTPNPDIMCNKEIKFKAFLEFADDILDADYIAMGHYVRRRDNEDGTTQMLRGVDNNKDQSYFLYTLSHEQVARSLFPVGELEKHEVREIAKQMGLITHDKKDSTGICFIGERKFTEFLGNYLPAQPGNIETADGEVIGTHQGLMYHTLGQRKGLGIGGMKNSNDDPWYVVDKDLKRNVLVVGQGGHHPRLMSNGMLVNQLHWVDRKGPINGSQIVVKTRYRQQDIPCTLTYLDDNTLKVVFDEPVAAVTPGQSAVFYDGEVCLGGGIIDQLIRGLEHHHHHH | soluble |
